In paper PMC10796322, “Molecular switching in transcription through splicing and proline-isomerization regulates stress responses in plants” (Nature Communications, 2024):
No end group written: not given here.

B1: Med25-ACID_(532-680), activator interaction domain (ACID) of mediator complex subunit 25 (domain or fragment, Arabidopsis thaliana, UniProt Q7XYY2 532-680, looked up)
chain: SNSSAPNMQLSQPSSGAMQTSQSKYVKVWEGNLSGQRQGQPVLITRLEGYRSASASDSLAANWPPTMQIVRLISQDHMNNKQYVGKADFLVFRAMSQHGFLGQLQDKKLCAVIQLPSQTLLLSVSDKACRLIGMLFPGDMVVFKPQIPN
notes: 15N- or 13C,15N-labelled in the NMR titrations; unlabelled in ITC, CEST and stopped-flow; also called AtMed25-ACID; ACID domain; source: E. coli BL21 DE3, purified (glutathione Sepharose, TEV cleavage, cation exchange, SEC); not shown: GST, N-terminal, cleaved

Key:
Med25-ACID = biological target: T1, Med25-ACID (Arabidopsis thaliana, UniProt Q7XYY2); conditions: SD
T1 construct: Med25-ACID532-680 (AT1G25540), expressed in E. coli with N-terminal GST tag removed by TEV protease
Protocol: All protein fragments were produced with an N-terminal Glutathione-S-transferase (GST) tag which was removed using Tobacco Etch Virus (TEV) protease and expressed from E.coli BL21 DE3 cells. DREB2A (AT5G05410) variants were expressed at 37 °C for three hours. The DREB2A splice variant (AT5G05410.2) was based on GenBank ID CD530293[21]. Due to stability and aggregation considerations, Med25-ACID (AT1G25540) was expressed with additional N-terminal residues. Expression of Med25-ACID532-680 was induced at high OD (0.8-1.0) and cultured overnight at 18 °C. Cells were resuspended in 20 mM Tris-HCl pH 8.0, 100 mM NaCl lysis buffer and sonicated. The lysate was incubated with glutathione Sepharose for one hour and washed using the lysis buffer. Aliquots of 5 mL resin were resuspended in 20 mL of lysis buffer with 5 mM dithiothreitol (DTT) and 1 mM EDTA and the protein was cleaved overnight at 4 °C using TEV protease. For DREB2A, cleaved protein was freeze-dried and buffer-changed to experimental buffer using size exclusion chromatography. Med25-ACID was further purified using cation exchange (Source 15 S) at pH 8.5 and the buffer was changed using size exclusion chromatography (Superdex S75 10/300 GL). Isotope-labeled proteins were produced by growing the initial culture in lysogenic broth and transferring to half volume M9 minimal media 30 min before induction.
(§1) ITC was performed on either a MicroCal ITC200 or a Malvern Pananalytical PEAQ-ITC. All ITC experiments were performed using a 50 mM HEPES pH 7.4, 100 mM NaCl and 0.5 mM tris(2-carboxyethyl)phosphine (TCEP) buffer. All experiments were performed using a ~ 1:10 cell to syringe protein concentration ratio. For high-affinity DREB2A fragments, the cell concentration was around 15 µM, while lower-affinity interaction experiments used higher concentrations. Samples were degassed by centrifuging at 20,000 x g for 20 minutes at experimental temperature. For three DREB2A fragments, experiments were performed over a range of temperatures to determine the ΔCp. Reported thermodynamic parameters are given at 25 °C. Data were analyzed using Origin and inhouse scripts using the one-set-of-sites model as documented by MicroCal and Origin. Dilution heats were fitted using an offset parameter. Most experiments were performed using a 0.5 µl initial injection, which was discarded in the analysis, followed by 18 injections of 2.0 µl.

Med25-ACID R568A [1] = biological target: T2, Med25-ACID R568A (Arabidopsis thaliana, UniProt Q7XYY2, R568A); conditions: SD, n = 2
T2 construct: Med25-ACID532-680 R568A, N-terminal GST tag removed by TEV protease
Protocol: To validate the proposed binding groove, we introduced an alanine in L1, replacing Arg568, which experienced a large CSP upon DREB2A binding, and determined the binding affinity using ITC with the high-affinity ABS-RIM fragment (DREB2A234-276, Fig. 1A). […] Thus, both NMR and thermodynamics supported the importance of the groove for the interaction with DREB2A.
as §1, with “µl. […]” for “µl.”

RCD1-RST = biological target: T3, RCD1-RST (Arabidopsis thaliana, UniProt Q8RY59); conditions: cited from earlier work
T3 construct: RCD1-RST
T3 sequence (Q8RY59 499-572): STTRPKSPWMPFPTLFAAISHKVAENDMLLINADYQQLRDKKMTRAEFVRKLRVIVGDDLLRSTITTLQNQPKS
Excerpt: However, alternative splicing of DREB2A will shortcut such regulatory fine-tuning of competition by removing the RIM, thereby eliminating RCD1 as a repressor while leaving AD2 available (Fig. 7B). This provides an obvious mechanism for functional switching in a transcriptional pathway.

DREB2A_(151-335) = biological target: T4, DREB2A_(151-335) (Arabidopsis thaliana, UniProt O82132 151-335); test: ITC; 25 °C; 50 mM HEPES pH 7.4, 100 mM NaCl, 0.5 mM TCEP; ~1:10 cell to syringe concentration ratio, cell around 15 µM for high-affinity fragments; one-set-of-sites model; which protein was in the cell is not stated; conditions: both partners purified
T4 construct: also called C-terminal intrinsically disordered region (IDR) of DREB2A; source: E. coli BL21 DE3, purified (glutathione Sepharose, TEV cleavage, SEC); not shown: GST, N-terminal, cleaved
T4 sequence (looked up): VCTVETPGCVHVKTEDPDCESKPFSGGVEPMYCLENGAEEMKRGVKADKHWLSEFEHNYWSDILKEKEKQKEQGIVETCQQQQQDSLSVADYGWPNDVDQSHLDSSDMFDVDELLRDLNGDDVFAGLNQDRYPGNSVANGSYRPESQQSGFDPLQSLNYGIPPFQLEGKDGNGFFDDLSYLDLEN

[2] = biological target: T5, Med25-ACID_(532-680), activator interaction domain (ACID) of mediator complex subunit 25 (Arabidopsis thaliana, UniProt Q7XYY2 532-680); test: NMR; cis proline isomer, 10 °C
T5 chain: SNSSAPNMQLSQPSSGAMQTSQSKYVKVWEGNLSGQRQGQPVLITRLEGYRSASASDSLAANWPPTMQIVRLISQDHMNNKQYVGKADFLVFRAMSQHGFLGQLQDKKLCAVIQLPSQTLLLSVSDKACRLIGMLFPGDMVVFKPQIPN

[3] = biological target: T5, Med25-ACID_(532-680), activator …; test: cis proline isomer, 10 °C
[4] = biological target: T5, Med25-ACID_(532-680), activator …; test: NMR; trans proline isomer, 10 °C
[5] = biological target: T5, Med25-ACID_(532-680), activator …; test: trans proline isomer, 10 °C
[6] = biological target: B1; test: ITC; 25 °C; 50 mM HEPES pH 7.4, 100 mM NaCl, 0.5 mM TCEP; ~1:10 cell to syringe concentration ratio, cell around 15 µM for high-affinity fragments; one-set-of-sites model; which protein was in the cell is not stated; conditions: both partners purified
[7] = biological target: B1; test: as above; conditions: both partners purified; remark: listed apart in the source
Med25-ACID R568A [8] = biological target: T6, Med25-ACID R568A (Arabidopsis thaliana, UniProt Q7XYY2 532-680, R568A); test: as above; conditions: both partners purified
T6 construct: Mediator complex subunit 25 (Med25), Arabidopsis thaliana, AT1G25540, ACID domain construct with Arg568 in loop L1 replaced by alanine; the only Med25-ACID construct described is 532-680; source: E. coli BL21 DE3, purified (glutathione Sepharose, TEV cleavage, cation exchange, SEC); not shown: GST, N-terminal, cleaved
T6 sequence (looked up): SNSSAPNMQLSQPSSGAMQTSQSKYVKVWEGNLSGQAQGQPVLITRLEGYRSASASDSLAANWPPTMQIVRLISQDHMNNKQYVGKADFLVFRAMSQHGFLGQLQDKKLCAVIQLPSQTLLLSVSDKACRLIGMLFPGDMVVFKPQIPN

[9] = biological target: B1; test: CEST NMR; 15N- and 13C-CEST; 500 µM 13C,15N-labeled DREB2A(234-276) or 1 mM DREB2A(234-276,P245A) with about 5% molar ratio of unlabeled Med25-ACID(532-680); pH 6.1, 20 mM phosphate, 100 mM NaCl; 25 °C and 10 °C; isomer Kd values estimated from the bound fractions and the overall ITC affinity; conditions: both partners purified
[10] = biological target: T5, Med25-ACID_(532-680), activator …; test: stopped-flow, 10 °C
[11] = biological target: T5, Med25-ACID_(532-680), activator …; test: stopped-flow, 10 °C
[12] = biological target: B1; test: stopped-flow fluorescence; FITC-DREB2A (50 nM 234-276 or 250 nM 234-256) mixed with increasing Med25-ACID(532-680), pseudo-first-order; dissociation by competitive displacement with unlabeled DREB2A; 50 mM HEPES pH 7.4, 100 mM NaCl, 1 mM DTT; Fig. 7 legend gives kinetic rate constants at 10 °C; conditions: both partners purified

## DREB2A195-276 [195–276]
Med25-ACID
  Kd: 450 ± 30 nM
Med25-ACID R568A [1]
  Kd: 3100 nM

## DREB2A (fragment borders not printed)
RCD1-RST
  Kd: 12 nM

## B1
DREB2A_(151-335)
  Kd: 540 nM

B2: DREB2A_(234-276) (ABS-RIM) (domain or fragment, Arabidopsis thaliana, UniProt O82132 234-276, looked up)
chain: QDSLSVADYGWPNDVDQSHLDSSDMFDVDELLRDLNGDDVFAG
notes: 13C,15N-labelled in the CEST experiments; Populates cis (30 ± 1%) and trans Trp244-Pro245 isomers in the free state; also called bivalent ABS-RIM fragment; source: E. coli BL21 DE3, purified (glutathione Sepharose, TEV cleavage, SEC); not shown: GST, N-terminal, cleaved
[2]
  Kd: 110 nM
[3]
  koff: 6 s⁻¹
[4]
  Kd: 190 nM
[5]
  koff: 24 s⁻¹
[6]
  Kd: 520 ± 20 nM
[7]
  Kd: 510 nM
  dH: -12.1 kcal/mol
  stoichiometry N: 0.98
Med25-ACID R568A [8]
  Kd: 3100 ± 700 nM
  dH: -11 ± 0.956 kcal/mol
  stoichiometry N: 0.9 ± 0.01
[9]
  KD of the cis-Pro245 isomer (estimated from CEST bound fractions and the ITC affinity): 330 ± 20 nM
  KD of the trans-Pro245 isomer (estimated from CEST bound fractions and the ITC affinity): 640 ± 30 nM

B3: FITC-DREB2A_(234-256) synthetic peptide (peptide, UniProt O82132 234-256, looked up)
peptide: QDSLSVADYGWPNDVDQSHLDSS
modifications: also: FITC label, position not given here
notes: DREB2A, Arabidopsis thaliana, AT5G05410, residues 234-256; also called FITC-labeled ABS; source: synthetic peptide, bought: TAG Copenhagen A/S
[10]
  koff: 54 s⁻¹
[11]
  Kd: 1800 nM
[12]
  kon: 2.9e+07 ± 1e+06 M⁻¹ s⁻¹
